{"source": "the supplement of paper PMC9233669", "key": {"[1]": {"test_system": "biotinyl-Val-oxazolone", "assay": "self-aminoacylation, catalytic enhancement (BVO) (fold over background); higher = more active; k-Seq, kA / k0A0; sequences stand for … in GGGAAUGGAUCCACAUCUACGAAUUC…UUCACUGCAGACUUGACGAAGCUG", "summary_of_the_method": "(§1)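 Mutagenized RNA pools (0.43 μM; 21-nt variable region) were treated with 2–1250 μM of each biotinyl-aminoacyl-oxazolone. Conditions were 50 μL HEPES/NaCl/KCl/MgCl2/CaCl2 buffer, 5% acetonitrile, pH 6.9–7.0, room temperature, 90 minutes. Catalytic enhancement, the median kA relative to the uncatalyzed rate, was derived from streptavidin capture, qPCR and Illumina sequencing.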"}, "[2]": {"test_system": "biotinyl-Phe-oxazolone", "assay": "self-aminoacylation, catalytic enhancement (BFO) (fold over background); higher = more active; k-Seq, kA / k0A0; sequences stand for … in GGGAAUGGAUCCACAUCUACGAAUUC…UUCACUGCAGACUUGACGAAGCUG", "summary_of_the_method": "as §1"}, "[3]": {"test_system": "biotinyl-Met-oxazolone", "assay": "self-aminoacylation, catalytic enhancement (BMO) (fold over background); higher = more active; k-Seq, kA / k0A0; sequences stand for … in GGGAAUGGAUCCACAUCUACGAAUUC…UUCACUGCAGACUUGACGAAGCUG", "summary_of_the_method": "as §1"}, "[4]": {"test_system": "biotinyl-Ile-oxazolone", "assay": "self-aminoacylation, catalytic enhancement (BIO) (fold over background); higher = more active; k-Seq, kA / k0A0; sequences stand for … in GGGAAUGGAUCCACAUCUACGAAUUC…UUCACUGCAGACUUGACGAAGCUG", "summary_of_the_method": "as §1"}, "[5]": {"test_system": "biotinyl-Leu-oxazolone", "assay": "self-aminoacylation, catalytic enhancement (BLO) (fold over background); higher = more active; k-Seq, kA / k0A0; sequences stand for … in GGGAAUGGAUCCACAUCUACGAAUUC…UUCACUGCAGACUUGACGAAGCUG", "summary_of_the_method": "as §1"}, "[6]": {"test_system": "biotinyl-Trp-oxazolone", "assay": "self-aminoacylation, catalytic enhancement (BWO) (fold over background); higher = more active; k-Seq, kA / k0A0; sequences stand for … in GGGAAUGGAUCCACAUCUACGAAUUC…UUCACUGCAGACUUGACGAAGCUG", "summary_of_the_method": "as §1"}}, "note": "Fewer inactive variants are shown than the library holds."}
{"sequence": "AUUCACCUAGGUGAUCGGGGG [Fam2.2 aminoacylation ribozyme variant]", "values": [{"measurement": "self-aminoacylation", "setting": "[1]", "value": 4.72}, {"measurement": "self-aminoacylation", "setting": "[2]", "value": 21.6}, {"measurement": "self-aminoacylation", "setting": "[3]", "value": 4.53}, {"measurement": "self-aminoacylation", "setting": "[4]", "value": 5.84}, {"measurement": "self-aminoacylation", "setting": "[5]", "value": 5.33}, {"measurement": "self-aminoacylation", "setting": "[6]", "value": 7.47}]}
{"sequence": "AUUCACCUAGGUGAUUGGGUG [Fam2.2 aminoacylation ribozyme variant]", "values": [{"measurement": "self-aminoacylation", "setting": "[1]", "value": 2.41}, {"measurement": "self-aminoacylation", "setting": "[2]", "value": 13.2}, {"measurement": "self-aminoacylation", "setting": "[3]", "value": 2.68}, {"measurement": "self-aminoacylation", "setting": "[4]", "value": 2.17}, {"measurement": "self-aminoacylation", "setting": "[5]", "value": 3.06}, {"measurement": "self-aminoacylation", "setting": "[6]", "value": 2.96}]}
{"sequence": "AUUCACCUAGGUGGUCGGGUG [Fam2.2 aminoacylation ribozyme variant]", "values": [{"measurement": "self-aminoacylation", "setting": "[1]", "value": 2.77}, {"measurement": "self-aminoacylation", "setting": "[2]", "value": 18.3}, {"measurement": "self-aminoacylation", "setting": "[3]", "value": 2.41}, {"measurement": "self-aminoacylation", "setting": "[4]", "value": 2.49}, {"measurement": "self-aminoacylation", "setting": "[5]", "value": 4.09}, {"measurement": "self-aminoacylation", "setting": "[6]", "value": 3.42}]}
{"sequence": "AUUCACCUAGGUUGUCGGGUG [Fam2.2 aminoacylation ribozyme variant]", "values": [{"measurement": "self-aminoacylation", "setting": "[1]", "value": 3.2}, {"measurement": "self-aminoacylation", "setting": "[2]", "value": 27.3}, {"measurement": "self-aminoacylation", "setting": "[3]", "value": 4.89}, {"measurement": "self-aminoacylation", "setting": "[4]", "value": 3.53}, {"measurement": "self-aminoacylation", "setting": "[5]", "value": 5.86}, {"measurement": "self-aminoacylation", "setting": "[6]", "value": 4.65}]}
{"sequence": "AUUCACCUAGUCCAUCGGGUG [Fam2.2 aminoacylation ribozyme variant]", "values": [{"measurement": "self-aminoacylation", "setting": "[1]", "value": 3.82}, {"measurement": "self-aminoacylation", "setting": "[2]", "value": 40.5}, {"measurement": "self-aminoacylation", "setting": "[3]", "value": 6.16}, {"measurement": "self-aminoacylation", "setting": "[4]", "value": 3.54}, {"measurement": "self-aminoacylation", "setting": "[5]", "value": 6.98}, {"measurement": "self-aminoacylation", "setting": "[6]", "value": 6.38}]}
{"sequence": "AUUCACCUAGUUCAUCAGGUG [Fam2.2 aminoacylation ribozyme variant]", "values": [{"measurement": "self-aminoacylation", "setting": "[1]", "value": 0.934}, {"measurement": "self-aminoacylation", "setting": "[2]", "value": 0.467}, {"measurement": "self-aminoacylation", "setting": "[3]", "value": 0.796}, {"measurement": "self-aminoacylation", "setting": "[4]", "value": 0.872}, {"measurement": "self-aminoacylation", "setting": "[5]", "value": 0.986}, {"measurement": "self-aminoacylation", "setting": "[6]", "value": 0.893}]}
{"sequence": "AUUCACCUAGUUCAUCCGGUG [Fam2.2 aminoacylation ribozyme variant]", "values": [{"measurement": "self-aminoacylation", "setting": "[1]", "value": 2.52}, {"measurement": "self-aminoacylation", "setting": "[2]", "value": 21.9}, {"measurement": "self-aminoacylation", "setting": "[3]", "value": 3.23}, {"measurement": "self-aminoacylation", "setting": "[4]", "value": 3.1}, {"measurement": "self-aminoacylation", "setting": "[5]", "value": 3.89}, {"measurement": "self-aminoacylation", "setting": "[6]", "value": 3.54}]}
{"sequence": "AUUCACCUAGUUCAUCGUGUG [Fam2.2 aminoacylation ribozyme variant]", "values": [{"measurement": "self-aminoacylation", "setting": "[1]", "value": 1.11}, {"measurement": "self-aminoacylation", "setting": "[2]", "value": 4.05}, {"measurement": "self-aminoacylation", "setting": "[3]", "value": 1.2}, {"measurement": "self-aminoacylation", "setting": "[4]", "value": 0.937}, {"measurement": "self-aminoacylation", "setting": "[5]", "value": 1.25}, {"measurement": "self-aminoacylation", "setting": "[6]", "value": 1.1}]}
{"sequence": "AUUCACCUAUAUCAUCGGGUG [Fam2.2 aminoacylation ribozyme variant]", "values": [{"measurement": "self-aminoacylation", "setting": "[1]", "value": 2.56}, {"measurement": "self-aminoacylation", "setting": "[2]", "value": 32.7}, {"measurement": "self-aminoacylation", "setting": "[3]", "value": 4.73}, {"measurement": "self-aminoacylation", "setting": "[4]", "value": 2.84}, {"measurement": "self-aminoacylation", "setting": "[5]", "value": 6.53}, {"measurement": "self-aminoacylation", "setting": "[6]", "value": 4.4}]}
{"sequence": "AUUCACCUAUGCCAUCGGGUG [Fam2.2 aminoacylation ribozyme variant]", "values": [{"measurement": "self-aminoacylation", "setting": "[1]", "value": 1.98}, {"measurement": "self-aminoacylation", "setting": "[2]", "value": 18.9}, {"measurement": "self-aminoacylation", "setting": "[3]", "value": 2.85}, {"measurement": "self-aminoacylation", "setting": "[4]", "value": 1.5}, {"measurement": "self-aminoacylation", "setting": "[5]", "value": 3.21}, {"measurement": "self-aminoacylation", "setting": "[6]", "value": 3.42}]}
{"sequence": "AUUCACCUAUGGCAUCGGGUG [Fam2.2 aminoacylation ribozyme variant]", "values": [{"measurement": "self-aminoacylation", "setting": "[1]", "value": 1.94}, {"measurement": "self-aminoacylation", "setting": "[2]", "value": 11.9}, {"measurement": "self-aminoacylation", "setting": "[3]", "value": 2.41}, {"measurement": "self-aminoacylation", "setting": "[4]", "value": 1.96}, {"measurement": "self-aminoacylation", "setting": "[5]", "value": 2.84}, {"measurement": "self-aminoacylation", "setting": "[6]", "value": 2.25}]}
{"sequence": "AUUCACCUAUGUCAACGGGUG [Fam2.2 aminoacylation ribozyme variant]", "values": [{"measurement": "self-aminoacylation", "setting": "[1]", "value": 2.01}, {"measurement": "self-aminoacylation", "setting": "[2]", "value": 16.8}, {"measurement": "self-aminoacylation", "setting": "[3]", "value": 2.83}, {"measurement": "self-aminoacylation", "setting": "[4]", "value": 1.83}, {"measurement": "self-aminoacylation", "setting": "[5]", "value": 3.35}, {"measurement": "self-aminoacylation", "setting": "[6]", "value": 2.52}]}
{"sequence": "AUUCACCUAUGUCACCGGGUG [Fam2.2 aminoacylation ribozyme variant]", "values": [{"measurement": "self-aminoacylation", "setting": "[1]", "value": 2.27}, {"measurement": "self-aminoacylation", "setting": "[2]", "value": 19}, {"measurement": "self-aminoacylation", "setting": "[3]", "value": 3.22}, {"measurement": "self-aminoacylation", "setting": "[4]", "value": 2.34}, {"measurement": "self-aminoacylation", "setting": "[5]", "value": 4.89}, {"measurement": "self-aminoacylation", "setting": "[6]", "value": 3.43}]}
